From patent publication US7067474B1, “Agents for treating human illnesses based on β-catenin, and the production and use thereof” (Max-Delbruck-Centrum fur Molekulare Medizin, priority 1998, dated 2006)

Tests used:
Assay in all cases: yeast 2-hybrid; - means 60-100% of the wild type interaction
[1] = biological target: T1, human β-catenin (Leu218-Leu781) mutant Arg 274 to alanine, Gal-4 activation domain fusion (human, UniProt P35222 218-781)
T1 sequence: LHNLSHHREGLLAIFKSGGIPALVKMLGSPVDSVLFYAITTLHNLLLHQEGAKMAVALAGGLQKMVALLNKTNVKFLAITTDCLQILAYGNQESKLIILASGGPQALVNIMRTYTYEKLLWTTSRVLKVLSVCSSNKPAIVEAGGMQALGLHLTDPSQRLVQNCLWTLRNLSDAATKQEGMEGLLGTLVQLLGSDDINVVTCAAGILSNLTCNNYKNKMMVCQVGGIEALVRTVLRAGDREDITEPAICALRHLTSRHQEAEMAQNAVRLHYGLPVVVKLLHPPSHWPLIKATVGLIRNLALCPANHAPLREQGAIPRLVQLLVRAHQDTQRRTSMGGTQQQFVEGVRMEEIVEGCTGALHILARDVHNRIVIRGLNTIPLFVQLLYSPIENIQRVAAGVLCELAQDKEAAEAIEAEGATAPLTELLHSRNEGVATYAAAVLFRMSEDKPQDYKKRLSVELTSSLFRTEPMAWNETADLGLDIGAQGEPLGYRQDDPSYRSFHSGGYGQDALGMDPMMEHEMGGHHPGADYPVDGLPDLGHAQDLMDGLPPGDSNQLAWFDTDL
Method: (§1) 4. Preparation and testing of mutants of β-catenin modulating the interaction with LEF-1, APC, conductin or E-cadherin The mutagenesis of β-catenin in the armadillo repeats 3–8 was carried out by means of the "mutagenesis kit" of the company Clontech according to the producer's record and the mutants were checked by sequencing (FIG. 5). In all mutants the original amino acid was substituted by alanine. For analyzing the interactions the cDNA of human β-catenin (armadillo repeat 3 up to the C-terminal end of the protein) coding for the amino acids Leu218–Leu7 µl or its mutants was cloned into the fusion vector for the activation domain of Gal-4 (pGAD424, Clontech). The cDNA for the binding domains of the interaction partners was cloned into the Lex-A fusion vector BTM 116. To this end, the cDNA of LEF-1 for the amino acids 1–99, conductin for the amino acids Ala342–ARG465; of human APC for the amino acids His1012–Glu1215 (APC 15 amino acid repeats) and for the amino acids Ser1259Asp 1400 (APC 20 amino acid repeats) and E-cadherin for the amino acids Gin773–Asp884 (cytoplasmatic domain) were amplified with the respective primers PCR. The interaction of the Lex-A hybrids with β-catenin and its mutants was quantified by means of the β-galactosidase reporter activity in the yeast 2-hybrid system (report: "Matchmaker". Clontech) (Tab. 2 and FIG. 6).

[2] = biological target: T2, human β-catenin (Leu218-Leu781) mutant Lys 394 to alanine, Gal-4 activation domain fusion (human, UniProt P35222 218-781)
T2 sequence: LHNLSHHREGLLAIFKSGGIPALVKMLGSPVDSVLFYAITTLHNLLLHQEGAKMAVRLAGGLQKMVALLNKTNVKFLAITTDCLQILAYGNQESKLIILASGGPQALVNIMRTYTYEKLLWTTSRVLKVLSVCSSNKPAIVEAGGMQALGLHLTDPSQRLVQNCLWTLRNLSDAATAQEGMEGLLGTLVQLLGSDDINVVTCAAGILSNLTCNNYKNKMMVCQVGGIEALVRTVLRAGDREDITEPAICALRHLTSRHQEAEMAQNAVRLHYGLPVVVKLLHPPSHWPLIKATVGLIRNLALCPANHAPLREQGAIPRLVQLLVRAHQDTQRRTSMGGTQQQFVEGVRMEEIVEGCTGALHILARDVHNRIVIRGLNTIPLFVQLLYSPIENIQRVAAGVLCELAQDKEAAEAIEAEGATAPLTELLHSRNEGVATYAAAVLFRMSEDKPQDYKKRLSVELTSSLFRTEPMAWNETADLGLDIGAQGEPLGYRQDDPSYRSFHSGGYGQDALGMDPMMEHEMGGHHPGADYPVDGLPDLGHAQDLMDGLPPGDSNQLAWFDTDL
Method: as §1

[3] = biological target: T3, human β-catenin (Leu218-Leu781) mutant Lys 435 to alanine, Gal-4 activation domain fusion (human, UniProt P35222 218-781)
T3 sequence: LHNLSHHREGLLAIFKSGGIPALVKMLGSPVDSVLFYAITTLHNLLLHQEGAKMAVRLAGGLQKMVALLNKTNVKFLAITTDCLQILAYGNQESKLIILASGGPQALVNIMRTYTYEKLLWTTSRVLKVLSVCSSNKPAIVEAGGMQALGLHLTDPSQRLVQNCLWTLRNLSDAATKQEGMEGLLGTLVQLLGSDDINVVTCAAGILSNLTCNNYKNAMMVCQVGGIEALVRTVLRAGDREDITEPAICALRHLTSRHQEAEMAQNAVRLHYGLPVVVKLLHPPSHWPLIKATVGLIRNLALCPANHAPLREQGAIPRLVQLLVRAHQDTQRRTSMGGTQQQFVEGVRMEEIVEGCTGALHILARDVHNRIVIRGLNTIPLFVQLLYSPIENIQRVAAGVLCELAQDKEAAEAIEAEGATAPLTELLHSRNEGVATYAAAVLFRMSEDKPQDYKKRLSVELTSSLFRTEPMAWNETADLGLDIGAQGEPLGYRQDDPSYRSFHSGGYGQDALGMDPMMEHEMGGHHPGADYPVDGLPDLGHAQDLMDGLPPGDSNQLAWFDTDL
Method: as §1

Measured: binding result

B1: LEF-1 amino acids 1-99 fused to Lex-A (vector BTM 116) (other, UniProt P0A7C2 1-202, looked up)
chain: MKALTARQQEVFDLIRDHISQTGMPPTRAEIAQRLGFRSPNAAEEHLKALARKGVIEIVSGASRGIRLLQEEEEGLPLVGRVAAGEPLLAQQHIEGHYQVDPSLFKPNADFLLRVSGMSMKDIGIMDGDLLAVHKTQDVRNGQVVVARIDDEVTVKRLKKQGNKVELLPENSEFKPIVVDLRQQSFTIEGLAVGVIRNGDWLMPQLSGGGGGGDPELCATDEMIPFKDEGDPQKEKIFAEISHPEEEGDLADIKSSLVNESEIIPASNGHEVVRQAPSSQEPYHDKAREHPDEGKHPDGGL
notes: Order of the fusion follows the vector; also called LEF-1/TCF-4
binds: all assays above
